Drawing on paper PMC8608799, “The main oxidative inactivation pathway of the plant hormone auxin” (Nature Communications, 2021), this text covers Km and kcat for one substance.

A word on the Km: it is the concentration of substrate that gives half-maximal velocity. Broadly, the kcat is the number of substrate molecules converted per active site and unit of time at saturation.

Holding throughout (format): biochemical, Arabidopsis thaliana
Conditions in all cases: 1 mM MnCl2, 0.5 mM dithiothreitol, 50 mM Tris-HCl pH 7.4, 32 °C

For series [1], the system named is O=C(O)CC[C@H](NC(=O)CC1C(=O)Nc2ccccc21)C(=O)O. The series is described as follows: HPLC of hydrolysis product, Lineweaver-Burk.
Series [2] relates to O=C(O)CC[C@H](NC(=O)Cc1c[nH]c2ccccc12)C(=O)O. Description: HPLC of hydrolysis product, kinetics.
In series [3] the test system is O=C(O)C[C@H](NC(=O)Cc1c[nH]c2ccccc12)C(=O)O. Description: HPLC of hydrolysis product, kinetics.
The subject of series [4] is O=C(O)C[C@H](NC(=O)CC1C(=O)Nc2ccccc21)C(=O)O. Description: HPLC of hydrolysis product, kinetics.

Chain of GST-ILR1 (Arabidopsis thaliana) (chain, as listed by the source): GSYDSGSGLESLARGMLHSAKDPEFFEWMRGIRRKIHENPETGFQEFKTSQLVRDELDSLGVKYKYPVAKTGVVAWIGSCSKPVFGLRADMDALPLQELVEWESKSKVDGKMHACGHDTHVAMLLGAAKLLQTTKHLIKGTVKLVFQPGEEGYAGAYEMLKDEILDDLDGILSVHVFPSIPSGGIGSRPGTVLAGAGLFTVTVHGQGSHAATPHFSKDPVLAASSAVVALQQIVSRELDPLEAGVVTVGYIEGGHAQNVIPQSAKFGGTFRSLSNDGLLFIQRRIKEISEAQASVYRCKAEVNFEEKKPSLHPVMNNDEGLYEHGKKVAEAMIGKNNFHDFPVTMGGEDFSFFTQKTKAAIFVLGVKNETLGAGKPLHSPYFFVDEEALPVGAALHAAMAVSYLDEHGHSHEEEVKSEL

On to GST-ILR1 (Arabidopsis thaliana), for which the Km came to 2.71 ± 0.34 µM in series [1], 59.9723 ± 7.5726 µM in series [2], 340.087 ± 41.4597 µM in series [3] and 130.125 ± 25.3236 µM in series [4]. Moreover, the catalytic constant (kcat) stood at 0.0089 s⁻¹ in series [1], 0.021 s⁻¹ in series [2], 0.0025 s⁻¹ in series [3] and 0.0036 s⁻¹ in series [4].
